In patent US11583587B2, “Polymer” (VECTURA LIMITED, priority 2016, dated 2023):

Assays:
complement proteins = assay: Complement activation assay (residual haemolytic capacity of normal human serum); settings: at the protein concentrations investigated
Experimental: Polymer-lysozyme nanocomplexes or free lysozyme were kept in contact with normal human serum (NHS) and the residual haemolytic capacity was measured to study the complement activation. NHS was received from healthy volunteers, aliquoted and stored at −80° C. until use. Sheep erythrocytes were sensitised by rabbit anti-sheep erythrocyte antibodies at a final dilution of 1/800 v/v and these sensitised sheep erythrocytes were suspended at a final concentration of 1×10^8 cells mL^−1 in veronal-buffer saline (VBS2+, containing 0.5 mM Mg and 0.15 mM Ca2+). VBS2+ and NHS were mixed with polymer-lysozyme nanocomplexes or free lysozyme at final protein concentration of 1.116 mg mL^−1 so that the final dilution of NHS in the reaction mixture was 1/4 (v/v) in a final volume of 400 μl. […] The supernatant was collected and the optical density was measured at 415 nm with Dynex absorbance microplate reader (Dynex technologies, USA).
Sample without serum was used here as […] (100% complement activation, 0% sensitised sheep erythrocytes lysis) and employed to correct the absorbance values from the samples. […] They can be calculated by a linear fit to a log-log version of the Von Krogh (equation 1). Particularly, in this study, the data was expressed as the percentage of complement activation relative to 100% complement activation observed with our positive control samples.

trypsin = assay: Protein protection against proteolytic enzymes (trypsin, then poly(allyl amine) disassembly); type: biochemical, bovine
Experimental: In order to assess the enzymatic activity of the lysozyme model protein, a turbidimetric enzymatic assay was performed by measuring the decrease in optical density of a suspension of Micrococcus lysodeikticus lyophilized cells, a natural substrate for lysozyme, in PB. Nanocomplexes and also free lysozyme were extracted from the dry powders as previously described, at a protein concentration of […] (as quantified by BCA assay). 10 mg of lyophilised cells were added to 20 mL of PB. 300 μL of this substrate suspension were added to 150 μL of particle solution and the decrease in optical density was measured at λ=460 nm as a function of time for 60 sec. The absorbance decay plots from 0 to 10 sec were fitted to a linear equation and the enzymatic activities were then determined from the slope of the fitted line. Not spray-dried free lysozyme was used in this work as reference (100% enzymatic activity).
Nanocomplexes were recovered from the dry powders as previously described, at a protein concentration of 37 μg mL^−1 (as quantified by BCA assay). 657 μg of trypsin (≥10,000 BAEE units/mg protein) were added to 4 mL of particle solution and the mixture was kept at room temperature for 3 h under gentle stirring. […] Lysozyme activity was then quantified as previously described. […]

- residual lysozyme activity after trypsin (trypsin; trypsin 3 h in PB, then poly(allyl amine) 1 h, % of initial activity): less than 40%
Substance: lysozyme: Model protein; samples named lysozyme contained no polymer (lysozyme 5% w/w)
- hemolysis of sensitized sheep erythrocytes without serum (complement proteins): did not lead to hemolysis
- decrease in enzymatic activity after trypsin (trypsin; no polymer added to the dry powder): > 60%
